We go through 31 molecules from US20260049138A1 (Chugai, published 2026).

Numbering of substitutions follows the chain as printed. Names and notes keep the numbering of the source.

B1: CE115HA000 N31D one-arm antibody (antibody, human IgG1, kappa, L234A L235A, N297A, name in Kabat numbering)
heavy: QVQLVESGGGVVQPGRSLRLSCAASGFTFSDAWMHWVRQAPGKGLEWVAQIKAKSNNYATYYAESVKGRFTISRDDSKNSLYLQMNSLKTEDTAVYYCRYVHYGAYYGVDAWGQGTTVTVSSASTKGPSVFPLAPSSKSTSGGTAALGCLVKDYFPEPVTVSWNSGALTSGVHTFPAVLQSSGLYSLSSVVTVPSSSLGTQTYICNVNHKPSNTKVDKKVEPKSCDKTHTCPPCPAPEAAGGPSVFLFPPKPKDTLMISRTPEVTCVVVDVSHEDPEVKFNWYVDGVEVHNAKTKPREEQYASTYRVVSVLTVLHQDWLNGKEYKCKVSNKALPAPIEKTISKAKGQPREPQVYTLPPSRCELTKNQVSLSCAVKGFYPSDIAVEWESNGQPENNYKTTPPVLDSDGSFFLVSKLTVDKSRWQQGNVFSCSVMHEALHNHYTQKSLSLSPDYKDDDDK
chain: EPKSSDKTHTCPPCPAPELLGGPSVFLFPPKPKDTLMISRTPEVTCVVVDVSHEDPEVKFNWYVDGVEVHNAKTKPREEQYNSTYRVVSVLTVLHQDWLNGKEYKCKVSNKALPAPIEKTISKAKGQPREPQVCTLPPSRDELTKNQVSLWCLVKGFYPSDIAVEWESNGQPENNYKTTPPVLDSDGSFFLYSKLTVDKSRWQQGNVFSCSVMHEALHNRYTQKSLSLSP
light: DIVMTQSPLSLPVTPGEPASISCRSSQSLVHSNRNTYLHWYQQKPGQAPRLLIYKVSNRFSGVPDRFSGSGSGTDFTLKISRVEAEDVGVYYCGQGTQVPYTFGQGTKLEIKRTVAAPSVFIFPPSDEQLKSGTASVVCLLNNFYPREAKVQWKVDNALQSGNSQESVTEQDSKDSTYSLSSTLTLSKADYEKHKVYACEVTHQGLSSPVTKSFNRGEC
B2: CE115HA000 N54D one-arm antibody (antibody, human IgG1, kappa, L234A L235A, N297A, name in Kabat numbering)
heavy: B1 heavy with D31N, N57D
chain: B1 chain
light: B1 light
B3: CE115HA000 N31S one-arm antibody (antibody, human IgG1, kappa, L234A L235A, N297A, name in Kabat numbering)
heavy: B1 heavy with D31S
chain: B1 chain
light: B1 light
B4: CE115HA000 N53A one-arm antibody (antibody, human IgG1, kappa, L234A L235A, N297A, name in Kabat numbering)
heavy: B1 heavy with D31N, N56A
chain: B1 chain
light: B1 light
B5: CE115HA000 N31I one-arm antibody (antibody, human IgG1, kappa, L234A L235A, N297A, name in Kabat numbering)
heavy: B1 heavy with D31I
chain: B1 chain
light: B1 light
B6: CE115HA000 N31H one-arm antibody (antibody, human IgG1, kappa, L234A L235A, N297A, name in Kabat numbering)
heavy: B1 heavy with D31H
chain: B1 chain
light: B1 light
B7: CE115HA000 N53I one-arm antibody (antibody, human IgG1, kappa, L234A L235A, N297A, name in Kabat numbering)
heavy: B1 heavy with D31N, N56I
chain: B1 chain
light: B1 light
B8: CE115HA000 N31G one-arm antibody (antibody, human IgG1, kappa, L234A L235A, N297A, name in Kabat numbering)
heavy: B1 heavy with D31G
chain: B1 chain
light: B1 light
B9: CE115HA000 N76S one-arm antibody (antibody, human IgG1, kappa, L234A L235A, N297A, name in Kabat numbering)
heavy: B1 heavy with D31N, N79S
chain: B1 chain
light: B1 light
B10: CE115HA000 N53Y one-arm antibody (antibody, human IgG1, kappa, L234A L235A, N297A, name in Kabat numbering)
heavy: B1 heavy with D31N, N56Y
chain: B1 chain
light: B1 light
B11: CE115HA000 N31W one-arm antibody (antibody, human IgG1, kappa, L234A L235A, N297A, name in Kabat numbering)
heavy: B1 heavy with D31W
chain: B1 chain
light: B1 light
B12: CE115HA000 N53D one-arm antibody (antibody, human IgG1, kappa, L234A L235A, N297A, name in Kabat numbering)
heavy: B1 heavy with D31N, N56D
chain: B1 chain
light: B1 light
B13: CE115HA000 N53Q one-arm antibody (antibody, human IgG1, kappa, L234A L235A, N297A, name in Kabat numbering)
heavy: B1 heavy with D31N, N56Q
chain: B1 chain
light: B1 light
B14: CE115HA000 N54F one-arm antibody (antibody, human IgG1, kappa, L234A L235A, N297A, name in Kabat numbering)
heavy: B1 heavy with D31N, N57F
chain: B1 chain
light: B1 light
B15: CE115HA000 N54S one-arm antibody (antibody, human IgG1, kappa, L234A L235A, N297A, name in Kabat numbering)
heavy: B1 heavy with D31N, N57S
chain: B1 chain
light: B1 light
B16: CE115HA000 N54L one-arm antibody (antibody, human IgG1, kappa, L234A L235A, N297A, name in Kabat numbering)
heavy: B1 heavy with D31N, N57L
chain: B1 chain
light: B1 light
B17: CE115HA000 N54Y one-arm antibody (antibody, human IgG1, kappa, L234A L235A, N297A, name in Kabat numbering)
heavy: B1 heavy with D31N, N57Y
chain: B1 chain
light: B1 light
B18: CE115HA000 N31Y one-arm antibody (antibody, human IgG1, kappa, L234A L235A, N297A, name in Kabat numbering)
heavy: B1 heavy with D31Y
chain: B1 chain
light: B1 light
B19: CE115HA000 N53G one-arm antibody (antibody, human IgG1, kappa, L234A L235A, N297A, name in Kabat numbering)
heavy: B1 heavy with D31N, N56G
chain: B1 chain
light: B1 light
B20: CE115HA000 N54Q one-arm antibody (antibody, human IgG1, kappa, L234A L235A, N297A, name in Kabat numbering)
heavy: B1 heavy with D31N, N57Q
chain: B1 chain
light: B1 light
B21: CE115HA000 N31K one-arm antibody (antibody, human IgG1, kappa, L234A L235A, N297A, name in Kabat numbering)
heavy: B1 heavy with D31K
chain: B1 chain
light: B1 light
B22: CE115HA000 N54G one-arm antibody (antibody, human IgG1, kappa, L234A L235A, N297A, name in Kabat numbering)
heavy: B1 heavy with D31N, N57G
chain: B1 chain
light: B1 light
B23: CE115HA000 N53W one-arm antibody (antibody, human IgG1, kappa, L234A L235A, N297A, name in Kabat numbering)
heavy: B1 heavy with D31N, N56W
chain: B1 chain
light: B1 light
B24: CE115HA000 N54A one-arm antibody (antibody, human IgG1, kappa, L234A L235A, N297A, name in Kabat numbering)
heavy: B1 heavy with D31N, N57A
chain: B1 chain
light: B1 light
B25: CE115HA000 N53S one-arm antibody (antibody, human IgG1, kappa, L234A L235A, N297A, name in Kabat numbering)
heavy: B1 heavy with D31N, N56S
chain: B1 chain
light: B1 light
B26: CE115HA000 N53H one-arm antibody (antibody, human IgG1, kappa, L234A L235A, N297A, name in Kabat numbering)
heavy: B1 heavy with D31N, N56H
chain: B1 chain
light: B1 light
B27: CE115HA000 N31Q one-arm antibody (antibody, human IgG1, kappa, L234A L235A, N297A, name in Kabat numbering)
heavy: B1 heavy with D31Q
chain: B1 chain
light: B1 light
B28: CE115HA000 N53K one-arm antibody (antibody, human IgG1, kappa, L234A L235A, N297A, name in Kabat numbering)
heavy: B1 heavy with D31N, N56K
chain: B1 chain
light: B1 light
B29: CE115HA000 N54K one-arm antibody (antibody, human IgG1, kappa, L234A L235A, N297A, name in Kabat numbering)
heavy: B1 heavy with D31N, N57K
chain: B1 chain
light: B1 light
B30: CE115HA000 N31F one-arm antibody (antibody, human IgG1, kappa, L234A L235A, N297A, name in Kabat numbering)
heavy: B1 heavy with D31F
chain: B1 chain
light: B1 light
B31: CE115HA000 N31R one-arm antibody (antibody, human IgG1, kappa, L234A L235A, N297A, name in Kabat numbering)
heavy: B1 heavy with D31R
chain: B1 chain
light: B1 light

T1 sequence (P07766 23-126 limits assumed): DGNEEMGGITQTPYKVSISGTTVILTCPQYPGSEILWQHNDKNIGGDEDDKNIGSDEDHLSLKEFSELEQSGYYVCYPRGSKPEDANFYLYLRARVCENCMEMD

This test addresses T1, CD3ε homodimer protein (human, UniProt P07766 23-126, limits assumed, sulfo-tag or biotin label in the ECL assays; amine-coupled to the chip in SPR).
T1 construct: also called human CD3ε homodimer protein; CD3 (CD3ε)
The experiment in a line: SPR Biacore T200; CD3ε homodimer on CM4 chip.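 Note: Single-residue variant antibodies injected as analyte over CD3ε homodimer immobilized by amine coupling, run at 25 °C in HBS-EP+ buffer.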
Take B1: the “ratio of amounts bound Z=Y/X (altered form / CE115HA000)” value worked out at 0.37.
With B2, the “ratio of amounts bound Z=Y/X (altered form / CE115HA000)” value was determined as 0.62.
B3: the “ratio of amounts bound Z=Y/X (altered form / CE115HA000)” value was 0.81.
For B4, the “ratio of amounts bound Z=Y/X (altered form / CE115HA000)” value turned out to be 0.7.
As to B5, the “ratio of amounts bound Z=Y/X (altered form / CE115HA000)” value amounted to 0.81.
B6: the “ratio of amounts bound Z=Y/X (altered form / CE115HA000)” value turned out to be 0.68.
For B7, the “ratio of amounts bound Z=Y/X (altered form / CE115HA000)” value was determined as 0.68.
Regarding B8, the “ratio of amounts bound Z=Y/X (altered form / CE115HA000)” value was 0.39.
B9: the “ratio of amounts bound Z=Y/X (altered form / CE115HA000)” value is 0.92.
With B10 the figure was 0.63; with B11, 0.63; with B12, 0.39.
Take B13: the “ratio of amounts bound Z=Y/X (altered form / CE115HA000)” value worked out at 1.1.
With B14 the figure was 1.12; with B15, 0.84.
Take B16: the “ratio of amounts bound Z=Y/X (altered form / CE115HA000)” value turned out to be 0.94.
For the molecule B17, the “ratio of amounts bound Z=Y/X (altered form / CE115HA000)” value came to 1.03.
With B18, the “ratio of amounts bound Z=Y/X (altered form / CE115HA000)” value is 0.64.
In the case of B19, the “ratio of amounts bound Z=Y/X (altered form / CE115HA000)” value came to 0.5.
Regarding B20, the “ratio of amounts bound Z=Y/X (altered form / CE115HA000)” value came out at 0.84.
Regarding B21, the “ratio of amounts bound Z=Y/X (altered form / CE115HA000)” value turned out to be 1.01.
As for B22, the “ratio of amounts bound Z=Y/X (altered form / CE115HA000)” value is 0.98.
With B23 the figure was 0.88.
For B24, the “ratio of amounts bound Z=Y/X (altered form / CE115HA000)” value came out at 0.86.
As for B25, the “ratio of amounts bound Z=Y/X (altered form / CE115HA000)” value turned out to be 0.83.
As to B26, the “ratio of amounts bound Z=Y/X (altered form / CE115HA000)” value is 0.76.
Turning to B27, the “ratio of amounts bound Z=Y/X (altered form / CE115HA000)” value is 0.49.
With B28 the figure was 0.78; with B29, 1.2; with B30, 0.62.
For B31, the “ratio of amounts bound Z=Y/X (altered form / CE115HA000)” value was 1.14.
